What follows are binders tested against HLA-B*44 (human) (assay: UV peptide exchange ELISA).
MEVDPIGHVYIF was tested, and the peptide exchange yield was greater than 75%. For TDSIHAWTF, the peptide exchange yield was 50 to 75%. Work on EEATGQFHVY yielded a peptide exchange yield of 50 to 75%. With AETLSTIQI the peptide exchange yield was 50 to 75%. QEQDVDLVQKY showed a peptide exchange yield of 20 to 50%. Binder TEDPTILRI has a peptide exchange yield of 50 to 75%. With KEVDPAGHSY the peptide exchange yield was 20 to 50%. In the case of GECDVFKEIL, the peptide exchange yield is reported as 50 to 75%. AEDEPAAAHL showed a peptide exchange yield of 20 to 50%. TEFTTVLY was tested, and the peptide exchange yield was 20 to 50%. Binder NEVLTYIKF has a peptide exchange yield greater than 75%. AEIQGNINHV gave a peptide exchange yield of 50 to 75%. For AEMLERVIKNY, the peptide exchange yield was greater than 75%. KELEATKQY showed a peptide exchange yield of 20 to 50%. In the case of SEFMQVIF, the peptide exchange yield is reported as 50 to 75%. Binder MEVPVIKI has a peptide exchange yield of 20 to 50%. FEYDFLLQRI was tested, and the peptide exchange yield was greater than 75%. Work on AEMLESVIKNY yielded a peptide exchange yield of 50 to 75%. EEVNYINTF showed a peptide exchange yield of 50 to 75%. Work on IEFIHPQAF yielded a peptide exchange yield greater than 75%. In the case of ASSSGPMRWW, the peptide exchange yield is reported as 20 to 50%. For EDAQGHIW, the peptide exchange yield was 50 to 75%. For ALNPYQYQY, the peptide exchange yield was 50 to 75%. In the case of VEAPGPVHVYW, the peptide exchange yield is reported as greater than 75%. For YEIEARNQVF, the peptide exchange yield was 50 to 75%. For HEFSSPSHL, the peptide exchange yield was 50 to 75%. With SEPALLHSW the peptide exchange yield was 50 to 75%. In the case of KEGDLGGKQW, the peptide exchange yield is reported as 50 to 75%. EEIEGKGSFTYF gave a peptide exchange yield of 50 to 75%. GEIIMQNNW showed a peptide exchange yield greater than 75%. Work on SEGSEPALLHSW yielded a peptide exchange yield of 50 to 75%. In the case of NEHPSNNW, the peptide exchange yield is reported as 50 to 75%. TENRYCVQL was tested, and the peptide exchange yield was greater than 75%. In the case of AEQDMRELTY, the peptide exchange yield is reported as 50 to 75%. QEMQHFLGL was tested, and the peptide exchange yield was 50 to 75%.

What follows are binders tested against HLA-A*24 (human) (assay: UV peptide exchange ELISA).
NYIYSISVF showed a peptide exchange yield greater than 75%. For NYAIFDEGHML, the peptide exchange yield was greater than 75%. For RYLADLPTL, the peptide exchange yield was greater than 75%. TYLSIFDQL showed a peptide exchange yield of 50 to 75%. With IYFRDSSFL the peptide exchange yield was greater than 75%. In the case of KYVKDFHKF, the peptide exchange yield is reported as greater than 75%. IMPEKFEFW showed a peptide exchange yield greater than 75%. Work on SYIGLPLTL yielded a peptide exchange yield of 50 to 75%. SYMVLAPVF was tested, and the peptide exchange yield was greater than 75%. For RWLPQKNAAQF, the peptide exchange yield was 50 to 75%. For AYTLLGHEFV, the peptide exchange yield was 10 to 20%. Binder VYVGAVNRI has a peptide exchange yield greater than 75%. Binder TWFPKTPMLF has a peptide exchange yield greater than 75%. NYAENILTL showed a peptide exchange yield of 50 to 75%. YYSPLRDLL showed a peptide exchange yield greater than 75%. Work on PYTNYTFDF yielded a peptide exchange yield greater than 75%. VFQEKHHVI showed a peptide exchange yield of 50 to 75%. Work on TYCQNIKEF yielded a peptide exchange yield greater than 75%. RYPGKFYRV showed a peptide exchange yield greater than 75%. For RFLPSPVVI, the peptide exchange yield was greater than 75%. IYQQIIQTY was tested, and the peptide exchange yield was greater than 75%. In the case of KYSTTFFMV, the peptide exchange yield is reported as 20 to 50%. In the case of KFLGPAEHLTF, the peptide exchange yield is reported as greater than 75%. Binder WYGWHFPEL has a peptide exchange yield of 50 to 75%. Binder VYDQYFITL has a peptide exchange yield greater than 75%. Binder QFAAPLRGIYF has a peptide exchange yield greater than 75%. Work on KYVKVFDKF yielded a peptide exchange yield greater than 75%. VYPASKMFPFI was tested, and the peptide exchange yield was greater than 75%. LYQEILAQL showed a peptide exchange yield greater than 75%. For VYNDHSIYVW, the peptide exchange yield was greater than 75%. VMPSDSFFF was tested, and the peptide exchange yield was greater than 75%. In the case of NYIVPDKQIF, the peptide exchange yield is reported as 50 to 75%. IYHSHHPTL showed a peptide exchange yield of 50 to 75%. In the case of VYSDLHAFYY, the peptide exchange yield is reported as greater than 75%. Binder RYKQDVERF has a peptide exchange yield of 50 to 75%. For RYEGILYTI, the peptide exchange yield was greater than 75%. Work on TYSKKHFRI yielded a peptide exchange yield greater than 75%. In the case of YPSIIQEF, the peptide exchange yield is reported as greater than 75%. MYINEVERL was tested, and the peptide exchange yield was greater than 75%. LYPEGLRLL gave a peptide exchange yield greater than 75%.

Reference: patent publication US20220153796A1
